Data taken from patent US20140357577A1, “HIV Membrane Fusion Inhibitors” (priority 2011, published 2014).
Starred links: 1 amine or outer side, 2 acyl side, 3 side chain; linkers in the order of their positions; H or OH if unused. Positions of bridges follow the written chain, without caps; N, C: chain ends. Non-standard residues stand in square brackets, D forms with d. *: point of attachment. cholesteryl‑oxycarbonylmethyl = CC(C)CCC[C@@H](C)[C@H]1CC[C@H]2[C@@H]3CC=C4C[C@@H](OC(=O)C*)CC[C@]4(C)[C@H]3CC[C@]12C; B21 = 2,7-dimethylnaphtyl, c1cc2ccc(C[*:2])cc2cc1C[*:1]; pXylylene = c1cc(C[*:2])ccc1C[*:1]; Suc = O=C(CCC(=O)[*:2])[*:1]; hCys = N[C@@H](CCS)C(=O)O; B1 = not defined here

B1: peptide 80 (peptide)
peptide: Ac-A[hCys]YAA[hCys]IEALIRKAQEQQEKNEAALR-NH2
modifications: linker 2-6 via B21
SMILES: CC[C@H](C)[C@H](NC(=O)[C@@H]1CCSCc2ccc3ccc(cc3c2)CSCC[C@H](NC(=O)[C@H](C)NC(C)=O)C(=O)N[C@@H](Cc2ccc(O)cc2)C(=O)N[C@@H](C)C(=O)N[C@@H](C)C(=O)N1)C(=O)N[C@@H](CCC(=O)O)C(=O)N[C@@H](C)C(=O)N[C@@H](CC(C)C)C(=O)N[C@H](C(=O)N[C@@H](CCCNC(=N)N)C(=O)N[C@@H](CCCCN)C(=O)N[C@@H](C)C(=O)N[C@@H](CCC(N)=O)C(=O)N[C@@H](CCC(=O)O)C(=O)N[C@@H](CCC(N)=O)C(=O)N[C@@H](CCC(N)=O)C(=O)N[C@@H](CCC(=O)O)C(=O)N[C@@H](CCCCN)C(=O)N[C@@H](CC(N)=O)C(=O)N[C@@H](CCC(=O)O)C(=O)N[C@@H](C)C(=O)N[C@@H](C)C(=O)N[C@@H](CC(C)C)C(=O)N[C@@H](CCCNC(=N)N)C(N)=O)[C@@H](C)CC
B2: peptide 72 (peptide)
peptide: Ac-ACYAACIEELIRKAQEQQEKNEAALR-NH2
modifications: linker 2-6 via pXylylene
SMILES: CC[C@H](C)[C@H](NC(=O)[C@@H]1CSCc2ccc(cc2)CSC[C@H](NC(=O)[C@H](C)NC(C)=O)C(=O)N[C@@H](Cc2ccc(O)cc2)C(=O)N[C@@H](C)C(=O)N[C@@H](C)C(=O)N1)C(=O)N[C@@H](CCC(=O)O)C(=O)N[C@@H](CCC(=O)O)C(=O)N[C@@H](CC(C)C)C(=O)N[C@H](C(=O)N[C@@H](CCCNC(=N)N)C(=O)N[C@@H](CCCCN)C(=O)N[C@@H](C)C(=O)N[C@@H](CCC(N)=O)C(=O)N[C@@H](CCC(=O)O)C(=O)N[C@@H](CCC(N)=O)C(=O)N[C@@H](CCC(N)=O)C(=O)N[C@@H](CCC(=O)O)C(=O)N[C@@H](CCCCN)C(=O)N[C@@H](CC(N)=O)C(=O)N[C@@H](CCC(=O)O)C(=O)N[C@@H](C)C(=O)N[C@@H](C)C(=O)N[C@@H](CC(C)C)C(=O)N[C@@H](CCCNC(=N)N)C(N)=O)[C@@H](C)CC
B3: peptide 82 (peptide)
peptide: Suc-ECYLRCIEELIRKAQEQQEKNEAALRGSGC(cholesteryl‑oxycarbonylmethyl)-NH2
modifications: linker 2-6 via pXylylene
SMILES: CC[C@H](C)[C@H](NC(=O)[C@H](CC(C)C)NC(=O)[C@H](CCC(=O)O)NC(=O)[C@H](CCC(=O)O)NC(=O)[C@@H](NC(=O)[C@@H]1CSCc2ccc(cc2)CSC[C@H](NC(=O)[C@H](CCC(=O)O)NC(=O)CCC(=O)O)C(=O)N[C@@H](Cc2ccc(O)cc2)C(=O)N[C@@H](CC(C)C)C(=O)N[C@@H](CCCNC(=N)N)C(=O)N1)[C@@H](C)CC)C(=O)N[C@@H](CCCNC(=N)N)C(=O)N[C@@H](CCCCN)C(=O)N[C@@H](C)C(=O)N[C@@H](CCC(N)=O)C(=O)N[C@@H](CCC(=O)O)C(=O)N[C@@H](CCC(N)=O)C(=O)N[C@@H](CCC(N)=O)C(=O)N[C@@H](CCC(=O)O)C(=O)N[C@@H](CCCCN)C(=O)N[C@@H](CC(N)=O)C(=O)N[C@@H](CCC(=O)O)C(=O)N[C@@H](C)C(=O)N[C@@H](C)C(=O)N[C@@H](CC(C)C)C(=O)N[C@@H](CCCNC(=N)N)C(=O)NCC(=O)N[C@@H](CO)C(=O)NCC(=O)N[C@@H](CSCC(=O)O[C@H]1CC[C@@]2(C)C(=CC[C@H]3[C@@H]4CC[C@H]([C@H](C)CCCC(C)C)[C@@]4(C)CC[C@@H]32)C1)C(N)=O
B4: peptide 74 (peptide)
peptide: Ac-ECYAACIEALIRAAQEQQEKNEAALR-NH2
modifications: linker 2-6 via pXylylene
SMILES: CC[C@H](C)[C@H](NC(=O)[C@H](CC(C)C)NC(=O)[C@H](C)NC(=O)[C@H](CCC(=O)O)NC(=O)[C@@H](NC(=O)[C@@H]1CSCc2ccc(cc2)CSC[C@H](NC(=O)[C@H](CCC(=O)O)NC(C)=O)C(=O)N[C@@H](Cc2ccc(O)cc2)C(=O)N[C@@H](C)C(=O)N[C@@H](C)C(=O)N1)[C@@H](C)CC)C(=O)N[C@@H](CCCNC(=N)N)C(=O)N[C@@H](C)C(=O)N[C@@H](C)C(=O)N[C@@H](CCC(N)=O)C(=O)N[C@@H](CCC(=O)O)C(=O)N[C@@H](CCC(N)=O)C(=O)N[C@@H](CCC(N)=O)C(=O)N[C@@H](CCC(=O)O)C(=O)N[C@@H](CCCCN)C(=O)N[C@@H](CC(N)=O)C(=O)N[C@@H](CCC(=O)O)C(=O)N[C@@H](C)C(=O)N[C@@H](C)C(=O)N[C@@H](CC(C)C)C(=O)N[C@@H](CCCNC(=N)N)C(N)=O
B5: peptide 84 (peptide)
peptide: Ac-ACYAACIEALIRAAREQQEKNEAALR-NH2
modifications: linker 2-6 via pXylylene
SMILES: CC[C@H](C)[C@H](NC(=O)[C@H](CC(C)C)NC(=O)[C@H](C)NC(=O)[C@H](CCC(=O)O)NC(=O)[C@@H](NC(=O)[C@@H]1CSCc2ccc(cc2)CSC[C@H](NC(=O)[C@H](C)NC(C)=O)C(=O)N[C@@H](Cc2ccc(O)cc2)C(=O)N[C@@H](C)C(=O)N[C@@H](C)C(=O)N1)[C@@H](C)CC)C(=O)N[C@@H](CCCNC(=N)N)C(=O)N[C@@H](C)C(=O)N[C@@H](C)C(=O)N[C@@H](CCCNC(=N)N)C(=O)N[C@@H](CCC(=O)O)C(=O)N[C@@H](CCC(N)=O)C(=O)N[C@@H](CCC(N)=O)C(=O)N[C@@H](CCC(=O)O)C(=O)N[C@@H](CCCCN)C(=O)N[C@@H](CC(N)=O)C(=O)N[C@@H](CCC(=O)O)C(=O)N[C@@H](C)C(=O)N[C@@H](C)C(=O)N[C@@H](CC(C)C)C(=O)N[C@@H](CCCNC(=N)N)C(N)=O
B6: peptide 73 (peptide)
peptide: Ac-ACYAACIEALIRAAQEQQEKNEALLR-NH2
modifications: linker 2-6 via pXylylene
SMILES: CC[C@H](C)[C@H](NC(=O)[C@H](CC(C)C)NC(=O)[C@H](C)NC(=O)[C@H](CCC(=O)O)NC(=O)[C@@H](NC(=O)[C@@H]1CSCc2ccc(cc2)CSC[C@H](NC(=O)[C@H](C)NC(C)=O)C(=O)N[C@@H](Cc2ccc(O)cc2)C(=O)N[C@@H](C)C(=O)N[C@@H](C)C(=O)N1)[C@@H](C)CC)C(=O)N[C@@H](CCCNC(=N)N)C(=O)N[C@@H](C)C(=O)N[C@@H](C)C(=O)N[C@@H](CCC(N)=O)C(=O)N[C@@H](CCC(=O)O)C(=O)N[C@@H](CCC(N)=O)C(=O)N[C@@H](CCC(N)=O)C(=O)N[C@@H](CCC(=O)O)C(=O)N[C@@H](CCCCN)C(=O)N[C@@H](CC(N)=O)C(=O)N[C@@H](CCC(=O)O)C(=O)N[C@@H](C)C(=O)N[C@@H](CC(C)C)C(=O)N[C@@H](CC(C)C)C(=O)N[C@@H](CCCNC(=N)N)C(N)=O
B7: peptide 79 (peptide)
peptide: Ac-A[hCys]YAA[hCys]IEALIRKAQEQQEKNEAALR-NH2
modifications: linker 2-6 via B21
SMILES: CC[C@H](C)[C@H](NC(=O)[C@@H]1CCSCc2ccc3ccc(cc3c2)CSCC[C@H](NC(=O)[C@H](C)NC(C)=O)C(=O)N[C@@H](Cc2ccc(O)cc2)C(=O)N[C@@H](C)C(=O)N[C@@H](C)C(=O)N1)C(=O)N[C@@H](CCC(=O)O)C(=O)N[C@@H](C)C(=O)N[C@@H](CC(C)C)C(=O)N[C@H](C(=O)N[C@@H](CCCNC(=N)N)C(=O)N[C@@H](CCCCN)C(=O)N[C@@H](C)C(=O)N[C@@H](CCC(N)=O)C(=O)N[C@@H](CCC(=O)O)C(=O)N[C@@H](CCC(N)=O)C(=O)N[C@@H](CCC(N)=O)C(=O)N[C@@H](CCC(=O)O)C(=O)N[C@@H](CCCCN)C(=O)N[C@@H](CC(N)=O)C(=O)N[C@@H](CCC(=O)O)C(=O)N[C@@H](C)C(=O)N[C@@H](C)C(=O)N[C@@H](CC(C)C)C(=O)N[C@@H](CCCNC(=N)N)C(N)=O)[C@@H](C)CC
B8: peptide 78 (peptide)
peptide: Ac-A[hCys]YAA[hCys]IEALIRAAQEQQEKNEAALR-NH2
modifications: linker 2-6 via B21
SMILES: CC[C@H](C)[C@H](NC(=O)[C@H](CC(C)C)NC(=O)[C@H](C)NC(=O)[C@H](CCC(=O)O)NC(=O)[C@@H](NC(=O)[C@@H]1CCSCc2ccc3ccc(cc3c2)CSCC[C@H](NC(=O)[C@H](C)NC(C)=O)C(=O)N[C@@H](Cc2ccc(O)cc2)C(=O)N[C@@H](C)C(=O)N[C@@H](C)C(=O)N1)[C@@H](C)CC)C(=O)N[C@@H](CCCNC(=N)N)C(=O)N[C@@H](C)C(=O)N[C@@H](C)C(=O)N[C@@H](CCC(N)=O)C(=O)N[C@@H](CCC(=O)O)C(=O)N[C@@H](CCC(N)=O)C(=O)N[C@@H](CCC(N)=O)C(=O)N[C@@H](CCC(=O)O)C(=O)N[C@@H](CCCCN)C(=O)N[C@@H](CC(N)=O)C(=O)N[C@@H](CCC(=O)O)C(=O)N[C@@H](C)C(=O)N[C@@H](C)C(=O)N[C@@H](CC(C)C)C(=O)N[C@@H](CCCNC(=N)N)C(N)=O

Target: gp41 of HIV-1 strain HXB2D with mutation V38A (HIV-1 strain HXB2D, UniProt P04578)
Test: cell-based or functional assay

| Binder | fold change in EC50, HIV-HXB2D V38A mutant [fold] |
| --- | --- |
| B1 | 40 |
| B2 | 10 |
| B3 | 1 |
| Ac-A[hCys]YAA[hCys]IEALIRAAQEQQEKNEAALR-NH2 (linker 2-6 via B1; reading uncertain) [peptide 77] | 39 |
| B4 | 33 |
| Ac-[dA]CYAACIEALIRAAQEQQEKNEAAL[dR]-NH2 (linker 2-6 via 2,7‑dimethylnaphthyl) [peptide 76] | 48 |
| B5 | 9 |
| B6 | 60 |
| B7 | 27 |
| Ac-ACYAA[dC]IEALIRAAQEQQEKNEAALR-NH2 (linker 2-6 via pXylylene; not fully specified) [peptide 83] | 6 |
| Ac-[dA]CYAACIEALIRAAQEQQEKNEAAL[dR]-NH2 (linker 2-6 via 2,7‑dimethylnaphthyl) [peptide 75] | 21 |
| B8 | 61 |
